Here are results for six molecules from publication PMC11456535, “Receptor activity-modifying protein modulation of parathyroid hormone-1 receptor function and signaling” (Frontiers in Pharmacology, 2024).

Test [1] addresses PTH1R of the PathHunter CHO-K1 PTH1R β-arrestin cell line (UniProt Q03431).
Test [2] has the same target. The source holds these as a separate data set.
The target of test [3] is T1, parathyroid hormone 1 receptor, C-tagged Citrine PTH1R (human, UniProt Q03431 27-593).
T1 construct: parathyroid hormone 1 receptor (PTH1R), cDNA without its stop codon between HindIII and Not1 of pcDNA3.1 Citrine; also called parathyroid hormone receptor-1; PTHR1; source: COS-7, transfected (electroporation, pcDNA3.1), in fixed cells; not shown: Citrine, C-terminal, kept
T1 sequence (looked up): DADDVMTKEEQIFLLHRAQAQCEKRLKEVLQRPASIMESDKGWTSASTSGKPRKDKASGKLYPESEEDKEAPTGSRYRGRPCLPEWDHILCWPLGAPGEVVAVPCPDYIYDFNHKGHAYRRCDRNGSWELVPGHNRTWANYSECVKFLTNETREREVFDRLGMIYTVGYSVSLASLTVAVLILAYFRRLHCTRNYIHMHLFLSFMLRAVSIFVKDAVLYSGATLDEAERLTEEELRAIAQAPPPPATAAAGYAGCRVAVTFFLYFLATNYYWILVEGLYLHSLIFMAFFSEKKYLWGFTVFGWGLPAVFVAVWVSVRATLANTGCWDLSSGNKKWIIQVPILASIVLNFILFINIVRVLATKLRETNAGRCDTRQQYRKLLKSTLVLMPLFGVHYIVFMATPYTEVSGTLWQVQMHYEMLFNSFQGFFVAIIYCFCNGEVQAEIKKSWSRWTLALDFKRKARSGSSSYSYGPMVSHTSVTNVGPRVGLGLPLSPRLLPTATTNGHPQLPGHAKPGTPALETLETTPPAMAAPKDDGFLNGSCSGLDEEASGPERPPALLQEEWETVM
Briefly: FRET or BRET; sensitized-emission FRET imaging at the cell surface (50-pixel membrane ROIs) of fixed COS-7 cells co-transfected with C-tagged Citrine PTH1R (acceptor) and C-tagged Cerulean RAMP (donor); NFRET as % of a Cerulean-Citrine fusion; FRET-based stoichiometric analysis (Hoppe et al., 2002). The following applies: partners not purified. On the technique in general: Bioluminescence resonance energy transfer reports proximity on the nanometre scale.

The target of test [4] is T1, parathyroid hormone 1 receptor, …. The test is described as above. The following applies: partners not purified. The source holds these as a separate data set.
Test [5] deals with PTH1R of the PathHunter CHO-K1 PTH1R β-arrestin cell line (UniProt Q03431). The source holds these as a separate data set.

Where two headings read alike, the source gives them in different places.

Regarding PTH (1-34) (peptide), in test [1], the efficacy, cAMP accumulation (Gαs), CHO-K1 PTH1R + RAMP2 cells is 79.4%; the efficacy, cAMP accumulation (Gαs), CHO-K1 PTH1R + RAMP3 cells turned out to be 65.1%; the efficacy, cAMP accumulation (Gαs), CHO-K1 PTH1R parental cells (mock) is 68.1%; the efficacy, cAMP accumulation after pertussis toxin (cAMP + PTX), CHO-K1 PTH1R + RAMP2 cells was 71.6%. In test [1], the efficacy, cAMP accumulation after pertussis toxin (cAMP + PTX), CHO-K1 PTH1R + RAMP3 cells was found to be 28.7%; the efficacy, cAMP accumulation after pertussis toxin (cAMP + PTX), CHO-K1 PTH1R parental cells (mock) amounted to 33.5%; the efficacy, calcium influx (Gαq), CHO-K1 PTH1R + RAMP2 cells is 63.5%; the efficacy, calcium influx (Gαq), CHO-K1 PTH1R parental cells (mock) came out at 19.8%. Moreover, in test [1], the efficacy, β-arrestin recruitment, CHO-K1 PTH1R + RAMP2 cells turned out to be 103%; the efficacy, β-arrestin recruitment, CHO-K1 PTH1R parental cells (mock) worked out at 6.31%; the pEC50, cAMP accumulation (Gαs), CHO-K1 PTH1R + RAMP2 cells stood at 9.55 pEC50; the pEC50, cAMP accumulation (Gαs), CHO-K1 PTH1R + RAMP3 cells was determined as 8.55 pEC50. Moreover, in test [1], the pEC50, cAMP accumulation (Gαs), CHO-K1 PTH1R parental cells (mock) stood at 9.3 pEC50; the pEC50, cAMP accumulation after pertussis toxin (cAMP + PTX), CHO-K1 PTH1R + RAMP2 cells amounted to 10 pEC50; the pEC50, cAMP accumulation after pertussis toxin (cAMP + PTX), CHO-K1 PTH1R + RAMP3 cells turned out to be 8.48 pEC50; the pEC50, cAMP accumulation after pertussis toxin (cAMP + PTX), CHO-K1 PTH1R parental cells (mock) came to 8.9 pEC50. In test [1], the pEC50, calcium influx (Gαq), CHO-K1 PTH1R + RAMP2 cells was determined as 8.21 pEC50; the pEC50, calcium influx (Gαq), CHO-K1 PTH1R parental cells (mock) came out at 8.9 pEC50; the pEC50, β-arrestin recruitment, CHO-K1 PTH1R + RAMP2 cells came to 8.19 pEC50; the pEC50, β-arrestin recruitment, CHO-K1 PTH1R parental cells (mock) was 8.6 pEC50.
On to PTHrP (1-108) (domain or fragment), for which, in test [2], the efficacy, cAMP accumulation, CHO-K1 PTH1R + RAMP2 cells came to 81.4%; the efficacy, cAMP accumulation, CHO-K1 PTH1R parental cells (mock) was determined as 72.8%; the pEC50, cAMP accumulation, CHO-K1 PTH1R + RAMP2 cells turned out to be 8.61 pEC50; the pEC50, cAMP accumulation, CHO-K1 PTH1R parental cells (mock) amounted to 8.25 pEC50.
Take PTHrP (1-141) (ligand): in test [2], the efficacy, cAMP accumulation, CHO-K1 PTH1R + RAMP2 cells was 85.3%; the efficacy, cAMP accumulation, CHO-K1 PTH1R + RAMP3 cells stood at 55.7%; the efficacy, cAMP accumulation, CHO-K1 PTH1R parental cells (mock) is 74.9%; the pEC50, cAMP accumulation, CHO-K1 PTH1R + RAMP2 cells was 9.25 pEC50. Also, in test [2], the pEC50, cAMP accumulation, CHO-K1 PTH1R + RAMP3 cells stood at 7.86 pEC50 and the pEC50, cAMP accumulation, CHO-K1 PTH1R parental cells (mock) amounted to 9.23 pEC50.

B1: receptor activity-modifying protein 3, C-tagged Cerulean RAMP3 (natural protein, human, UniProt O60896 24-148, looked up)
chain: RAGGCNETGMLERLPLCGKAFADMMGKVDVWKWCNLSEFIVYYESFTNCTEMEANVVGCYWPNPLAQGFITGIHRQFFSNCTVDRVHLEDPPDEVLIPLIVIPVVLTVAMAGLVVWRSKRTDTLL
notes: RAMP3, cDNA without its stop codon between Kpn1 and Not1 of pcDNA3.1 Cerulean; source: COS-7, transfected (electroporation, pcDNA3.1), in fixed cells; not shown: Cerulean, C-terminal, kept
Turning to B1, the “stoichiometry N” value in test [3] was about 2 RAMP3 per PTH1R. In addition, in test [4], the “R (molar ratio of acceptor to donor)” value was 0.37 ± 0.06 PTH1R (acceptor) per RAMP3 (donor) and the “cell membrane NFRET relative to cer-cit fusion” value was 32 ± 4.7%.

B2: receptor activity-modifying protein 2, C-tagged Cerulean RAMP2 (natural protein, human, UniProt O60895 43-175, looked up)
chain: QPLPTTGTPGSEGGTVKNYETAVQFCWNHYKDQMDPIEKDWCDWAMISRPYSTLRDCLEHFAELFDLGFPNPLAERIIFETHQIHFANCSLVQPTFSDPPEDVLLAMIIAPICLIPFLITLVVWRSKDSEAQA
notes: RAMP2, cDNA without its stop codon between Kpn1 and Not1 of pcDNA3.1 Cerulean; source: COS-7, transfected (electroporation, pcDNA3.1), in fixed cells; not shown: Cerulean, C-terminal, kept
Consider B2, for which the “stoichiometry N” value in test [3] is about 1 RAMP2 per PTH1R. Also, in test [4], the “R (molar ratio of acceptor to donor)” value was 1.27 ± 0.31 PTH1R (acceptor) per RAMP2 (donor) and the “cell membrane NFRET relative to cer-cit fusion” value was found to be 48.8 ± 4.1%.

B3: PTH (1-84) (ligand)
chain: SVSEIQLMHNLGKHLNSMERVEWLRKKLQDVHNFVALGAPLAPRDAGSQRPRKKEDNVLVESHEKSLGEADKADVNVLTKAKSQ
On to B3, for which, in test [5], the efficacy, cAMP accumulation (Gαs), CHO-K1 PTH1R + RAMP2 cells was determined as 95.5%; the efficacy, cAMP accumulation (Gαs), CHO-K1 PTH1R + RAMP3 cells was found to be 72.2%; the efficacy, cAMP accumulation (Gαs), CHO-K1 PTH1R parental cells (mock) worked out at 86.6%; the efficacy, cAMP accumulation after pertussis toxin (cAMP + PTX), CHO-K1 PTH1R + RAMP2 cells stood at 94.3%. In test [5], the efficacy, cAMP accumulation after pertussis toxin (cAMP + PTX), CHO-K1 PTH1R + RAMP3 cells was determined as 71.5%; the efficacy, cAMP accumulation after pertussis toxin (cAMP + PTX), CHO-K1 PTH1R parental cells (mock) came to 85.5%; the efficacy, calcium influx (Gαq), CHO-K1 PTH1R + RAMP2 cells turned out to be 82.2%; the efficacy, β-arrestin recruitment, CHO-K1 PTH1R + RAMP2 cells came to 104%. Also, in test [5], the efficacy, β-arrestin recruitment, CHO-K1 PTH1R parental cells (mock) was determined as 6.08%; the pEC50, cAMP accumulation (Gαs), CHO-K1 PTH1R + RAMP2 cells was 9.24 pEC50; the pEC50, cAMP accumulation (Gαs), CHO-K1 PTH1R + RAMP3 cells was determined as 7.55 pEC50; the pEC50, cAMP accumulation (Gαs), CHO-K1 PTH1R parental cells (mock) came to 8.2 pEC50. Also, in test [5], the pEC50, cAMP accumulation after pertussis toxin (cAMP + PTX), CHO-K1 PTH1R + RAMP2 cells worked out at 9.01 pEC50; the pEC50, cAMP accumulation after pertussis toxin (cAMP + PTX), CHO-K1 PTH1R + RAMP3 cells worked out at 7.51 pEC50; the pEC50, cAMP accumulation after pertussis toxin (cAMP + PTX), CHO-K1 PTH1R parental cells (mock) was 7.8 pEC50; the pEC50, calcium influx (Gαq), CHO-K1 PTH1R + RAMP2 cells was 7.38 pEC50. In test [5], the pEC50, β-arrestin recruitment, CHO-K1 PTH1R + RAMP2 cells was determined as 8.1 pEC50 and the pEC50, β-arrestin recruitment, CHO-K1 PTH1R parental cells (mock) is 8.4 pEC50.

A word on the stoichiometry N: it is a count of units in the complex or per binding partner.
